Consider 3 molecules from patent US9284543B2, “Neutral active soluble truncated PH20 polypeptides and uses thereof” (Halozyme, Inc., priority 2008, dated 2016).

The subject of one series is CHO-S cells. Nature of the series: PI-PLC treatment of expressing cells, Western blot of media and cells. Format: cell-based, Chinese Hamster. The conditions noted are these: cells incubated with PI-PLC for 2 hours. The method, then:
In this example, following transient expression, as described in Example 2 above, the media and cells were harvested separately and analyzed for PH20 expression and solublility by Western blot analysis. Solubility of the C-terminus truncation mutants was determined by examining whether the expressed protein was present in the growth media or in the cells. […] Cells expressing these mutants were treated with phosphoinositol-phospholipase C (PI-PLC), which cleaves the GPI-anchor allowing the release of soluble protein into the media, and the presence of PH20 in the resulting media and cells was determined by Western blot analysis.
Following expression of rHuPH20 in CHO—S cells for 72 hours, as described in Example 2A above, the media and cells were harvested separately. The cells were washed with serum-free media followed by the addition of 2 mL serum-free media per well. PI-PLC (0.5 units/well) was added to each well and the cells were incubated in the PI-PLC for 2 hours. The resultant media and cells were analyzed by Western blot analysis as described above.
Two plates each of rHuPH20 expressing CHO—S cells, one for treatment with PI-PLC and one without treatment with PI-PLC, were prepared for each C-terminus mutant as described in Example 2B above. Following expression for 48 hours, for cells untreated with PI-PLC, the media and cells were harvested separately. The harvested media was spun down, concentrated to a volume of 10 mL, and buffer exchanged into PBS using an Amicon 30 kD MWCO concentrator. The cells were rinsed with cold PBS and scraped and resuspended in 1.2 mL PBS with protease inhibitor Set III (Cat No. 539134, Calbiochem). The resuspended cells were briefly sonicated to prepare whole-cell extract. For PI-PLC treatment of cells, following expression for 48 hours, the untreated media was harvested, as described above. The cells were rinsed once with fresh CD DG44 medium with Glutamax-1, and the media was replaced with 12 mL fresh detergent free CD DG44 medium supplemented with Glutamax-1 with 3.0 units PI-PLC per dish, and the cells were incubated for 2 hours at 37° C. with 5% CO2. After 2 hours, the PI-PLC media and cells were harvested separately, as described above. The resultant untreated media and cells, and PI-PLC treated media and cells, were analyzed by Western blot analysis as described above.

The nature of series [1]: Microtiter hyaluronidase activity assay with biotinylated-hyaluronic acid. Format: biochemical. Particulars: for pH 5.5 Activity / pH 7.4 Activity: 72 hour post transfection supernatant; for Hyaluronidase activity (in words): pH 7.4 and pH 5.5.

B1: SPAM1-ILFL: C-terminally truncated human PH20, precursor 501 aa (SEQ ID NO:6), mature 466 aa (SEQ ID NO:58) (protein, listed as Homo sapiens)
chain 1: MGVLKFKHIFFRSFVKSSGVSQIVFTFLLIPCCLTLNFRAPPVIPNVPFLWAWNAPSEFCLGKFDEPLDMSLFSFIGSPRINATGQGVTIFYVDRLGYYPYIDSITGVTVNGGIPQKISLQDHLDKAKKDITFYMPVDNLGMAVIDWEEWRPTWARNWKPKDVYKNRSIELVQQQNVQLSLTEATEKAKQEFEKAGKDFLVETIKLGKLLRPNHLWGYYLFPDCYNHHYKKPGYNGSCFNVEIKRNDDLSWLWNESTALYPSIYLNTQQSPVAATLYVRNRVREAIRVSKIPDAKSPLPVFAYTRIVFTDQVLKFLSQDELVYTFGETVALGASGIVIWGTLSIMRSMKSCLLLDNYMETILNPYIINVTLAAKMCSQVLCQEQGVCIRKNWNSSDYLHLNPDNFAIQLEKGGKFTVRGKPTLEDLEQFSEKFYCSCYSTLSCKEKADVKDTDAVDVCIADGVCIDAFLKPPMETEEPQIFYNASPSTLSATMFIVSILFL
chain 2: LNFRAPPVIPNVPFLWAWNAPSEFCLGKFDEPLDMSLFSFIGSPRINATGQGVTIFYVDRLGYYPYIDSITGVTVNGGIPQKISLQDHLDKAKKDITFYMPVDNLGMAVIDWEEWRPTWARNWKPKDVYKNRSIELVQQQNVQLSLTEATEKAKQEFEKAGKDFLVETIKLGKLLRPNHLWGYYLFPDCYNHHYKKPGYNGSCFNVEIKRNDDLSWLWNESTALYPSIYLNTQQSPVAATLYVRNRVREAIRVSKIPDAKSPLPVFAYTRIVFTDQVLKFLSQDELVYTFGETVALGASGIVIWGTLSIMRSMKSCLLLDNYMETILNPYIINVTLAAKMCSQVLCQEQGVCIRKNWNSSDYLHLNPDNFAIQLEKGGKFTVRGKPTLEDLEQFSEKFYCSCYSTLSCKEKADVKDTDAVDVCIADGVCIDAFLKPPMETEEPQIFYNASPSTLSATMFIVSILFL
modifications: HuPH20 precursor 1-501; mature HuPH20 36-501
For B1, in the series on CHO-S cells, the “Expressed in Media Following Addition of PI-PLC” value (shortened to “Expressed”) is given as “YES”. In series [1] (Table 6), the “pH 5.5 Activity” value is given as 0.0405 Units/ml and the “pH 7.4 Activity” value worked out at 0.0405 Units/ml. In series [1] (Table 6A), the “pH 5.5 Activity” value worked out at 0.122 Units/ml and the “pH 7.4 Activity” value is 0.446 Units/ml. The “Hyaluronidase activity (in words)” value in series [1] is listed as “little detectable activity”.

B2: SPAM1-SSVA: C-terminally truncated human PH20, precursor 507 aa (SEQ ID NO:3), mature 472 aa (SEQ ID NO:55) (protein, listed as Homo sapiens)
chain 1: MGVLKFKHIFFRSFVKSSGVSQIVFTFLLIPCCLTLNFRAPPVIPNVPFLWAWNAPSEFCLGKFDEPLDMSLFSFIGSPRINATGQGVTIFYVDRLGYYPYIDSITGVTVNGGIPQKISLQDHLDKAKKDITFYMPVDNLGMAVIDWEEWRPTWARNWKPKDVYKNRSIELVQQQNVQLSLTEATEKAKQEFEKAGKDFLVETIKLGKLLRPNHLWGYYLFPDCYNHHYKKPGYNGSCFNVEIKRNDDLSWLWNESTALYPSIYLNTQQSPVAATLYVRNRVREAIRVSKIPDAKSPLPVFAYTRIVFTDQVLKFLSQDELVYTFGETVALGASGIVIWGTLSIMRSMKSCLLLDNYMETILNPYIINVTLAAKMCSQVLCQEQGVCIRKNWNSSDYLHLNPDNFAIQLEKGGKFTVRGKPTLEDLEQFSEKFYCSCYSTLSCKEKADVKDTDAVDVCIADGVCIDAFLKPPMETEEPQIFYNASPSTLSATMFIVSILFLIISSVA
chain 2: LNFRAPPVIPNVPFLWAWNAPSEFCLGKFDEPLDMSLFSFIGSPRINATGQGVTIFYVDRLGYYPYIDSITGVTVNGGIPQKISLQDHLDKAKKDITFYMPVDNLGMAVIDWEEWRPTWARNWKPKDVYKNRSIELVQQQNVQLSLTEATEKAKQEFEKAGKDFLVETIKLGKLLRPNHLWGYYLFPDCYNHHYKKPGYNGSCFNVEIKRNDDLSWLWNESTALYPSIYLNTQQSPVAATLYVRNRVREAIRVSKIPDAKSPLPVFAYTRIVFTDQVLKFLSQDELVYTFGETVALGASGIVIWGTLSIMRSMKSCLLLDNYMETILNPYIINVTLAAKMCSQVLCQEQGVCIRKNWNSSDYLHLNPDNFAIQLEKGGKFTVRGKPTLEDLEQFSEKFYCSCYSTLSCKEKADVKDTDAVDVCIADGVCIDAFLKPPMETEEPQIFYNASPSTLSATMFIVSILFLIISSVA
modifications: HuPH20 precursor 1-507; mature HuPH20 36-507
For B2, in the series on CHO-S cells, the “Expressed” value was “YES”. Also, in series [1] (Table 6), the “pH 5.5 Activity” value was found to be 1.125 Units/ml and the “pH 7.4 Activity” value turned out to be 1.4715 Units/ml. In series [1] (Table 6A), the “pH 5.5 Activity” value worked out at 1.256 Units/ml and the “pH 7.4 Activity” value is 1.782 Units/ml.

B3: SPAM1-LFLI: C-terminally truncated human PH20, precursor 502 aa (SEQ ID NO:47), mature 467 aa (SEQ ID NO:99) (protein, listed as Homo sapiens)
chain 1: MGVLKFKHIFFRSFVKSSGVSQIVFTFLLIPCCLTLNFRAPPVIPNVPFLWAWNAPSEFCLGKFDEPLDMSLFSFIGSPRINATGQGVTIFYVDRLGYYPYIDSITGVTVNGGIPQKISLQDHLDKAKKDITFYMPVDNLGMAVIDWEEWRPTWARNWKPKDVYKNRSIELVQQQNVQLSLTEATEKAKQEFEKAGKDFLVETIKLGKLLRPNHLWGYYLFPDCYNHHYKKPGYNGSCFNVEIKRNDDLSWLWNESTALYPSIYLNTQQSPVAATLYVRNRVREAIRVSKIPDAKSPLPVFAYTRIVFTDQVLKFLSQDELVYTFGETVALGASGIVIWGTLSIMRSMKSCLLLDNYMETILNPYIINVTLAAKMCSQVLCQEQGVCIRKNWNSSDYLHLNPDNFAIQLEKGGKFTVRGKPTLEDLEQFSEKFYCSCYSTLSCKEKADVKDTDAVDVCIADGVCIDAFLKPPMETEEPQIFYNASPSTLSATMFIVSILFLI
chain 2: LNFRAPPVIPNVPFLWAWNAPSEFCLGKFDEPLDMSLFSFIGSPRINATGQGVTIFYVDRLGYYPYIDSITGVTVNGGIPQKISLQDHLDKAKKDITFYMPVDNLGMAVIDWEEWRPTWARNWKPKDVYKNRSIELVQQQNVQLSLTEATEKAKQEFEKAGKDFLVETIKLGKLLRPNHLWGYYLFPDCYNHHYKKPGYNGSCFNVEIKRNDDLSWLWNESTALYPSIYLNTQQSPVAATLYVRNRVREAIRVSKIPDAKSPLPVFAYTRIVFTDQVLKFLSQDELVYTFGETVALGASGIVIWGTLSIMRSMKSCLLLDNYMETILNPYIINVTLAAKMCSQVLCQEQGVCIRKNWNSSDYLHLNPDNFAIQLEKGGKFTVRGKPTLEDLEQFSEKFYCSCYSTLSCKEKADVKDTDAVDVCIADGVCIDAFLKPPMETEEPQIFYNASPSTLSATMFIVSILFLI
modifications: HuPH20 precursor 1-502; Mature HuPH20 36-502
In the case of B3, in the series with CHO-S cells, the “Expressed” value is listed as “YES”. For the same molecule, in series [1] (Table 6A), the “pH 5.5 Activity” value was determined as 0.324 Units/ml and the “pH 7.4 Activity” value was 0.608 Units/ml. The “Hyaluronidase activity (in words)” value in series [1] was “little detectable activity”.
